# Laboratory results taken from US12319747B2, “Methods of using anti-SP17 immunotherapeutics” (Medicovestor, Inc., priority 2023, dated 2025).
# “Also recorded” adds a separate entry of the source.
# Test system: 33 normal human tissues
# Assay: Immunohistochemistry on a normal tissue microarray (specificity)
# Details: 33 normal tissues, 2-3 human donors per tissue
# Protocol: The specificity of the chAB2 antibody for Sp17 was determined with immunohistochemistry on a normal tissue microarray, which consisted of 33 normal tissues obtained from 2-3 human donors per tissue. The normal tissues included brain, eye, adrenal gland, hypophyseal, thyroid, parathyroid, tonsil, thymus, spleen, heart, lung, larynx, esophagus, stomach, small intestine, colon, liver, pancreas, salivary gland, kidney, bone, skeletal, skin, peripheral nerve, mesothelial, breast, ovary, endometrium, cervix, testis, and prostate.
molecule,measurement,value
"chAB2: mouse-human chimeric anti-Sp17 monoclonal antibody; human VH/VL (SEQ ID NO: 3, 4) in mouse IgG2a heavy chain and mouse kappa light chain (antibody, V domains shown, mouse IgG2a and kappa constant regions) VH: QVQLQQSGAEVKKPGSSVKVSCKASGGTFSSYAISWVRQAPGQGLEWMGRIIPILGIANYAQKFQGRVTITADKSTSTAYMELSSLRSEDTAVYYCARPSEEVVAAYGAFDIWGQGTTVTVSS VL: EIVLTQSPLSLPVRPGEPASISCRASQSLLRSDGFNYLDWYLQKPGQSPQLLVYLGSNRASGVPDRFSGSGSGTDFTLKISRVEAEDVGVYYCMQAVQTPYIFGQGTKLEIK",binding to normal human tissues / cross-reactivity,bound to testis and did not bind to normal tissues; also recorded: lack detectable cross-reactivity
